Reference: PMC12650235, “Optimized Aptamer-Conjugated Gold Nanoparticles for Specific Detection of GII.4 Human Norovirus in Feces”

Assays:
[1] = tested on: GII.4 HuNoV VLP (VP1 capsid) (Human norovirus GII.4 Hu/GII.4/DBM15-156/2015); experiment: BLI; settings: BLI: PBST + 5 mM Mg2+, biotin-aptamer 100 nM, VLP 18.75-150 nM, Octet RED96, ELASA: VLP 3 ug/mL, aptamer 1 uM, CD: 10 mM Tris-HCl pH 7.4, 1.0 mM NaCl, 0.05 mM …
[2] = tested on: GII.4 HuNoV VLP (VP1 capsid) (Human norovirus GII.4 Hu/GII.4/DBM15-156/2015); experiment: ELASA; settings: BLI: PBST + 5 mM Mg2+, biotin-aptamer 100 nM, VLP 18.75-150 nM, Octet RED96; ELASA: VLP 3 ug/mL, aptamer 1 uM; CD: 10 mM Tris-HCl pH 7.4, 1.0 mM NaCl, 0.05 mM …
GII.2 HuNoV VLP = GII.2 HuNoV VLP (Human norovirus GII.2 Env/CHN/2016, UniProt A0A291L9K1 1-542); experiment: AuNP colorimetric competition; A620/A520 < 0.4; BLI: PBST + 5 mM Mg2+, biotin-aptamer 100 nM, VLP 18.75-150 nM, Octet RED96; ELASA: VLP 3 ug/mL, aptamer 1 uM; CD: 10 mM Tris-HCl pH 7.4, 1.0 mM NaCl, 0.05 mM MgCl2, room temperature; settings: protein: recombinant; tags: His; chain copies: 180; label: biotin (5' in the colorimetric assay); stem-loops
GII.17 HuNoV VLP = GII.17 HuNoV VLP (Human norovirus GII.17 …, UniProt A0A0E3X5I8 1-540); experiment: as above; settings: protein: recombinant; chain copies: 180; label: biotin (5' in the colorimetric assay); stem-loops

Molecule: AACACGACCCACGTACCTGTGCGAGACACAGACCACCAAGGTGGGC [AP4-11]
- Kd [1]: 2.28 nM

Molecule: AACACGACCCACGTACCTGTGTGAGACACAGACCACCAAGGTGGGC [AP4-11-2 (C22T)]
- binding signal (% of AP4-11 (46% loss)) [2]: 54
- Kd ([1]; 5 mM Mg2+, poor fit R2=0.86): 4.62 nM

B1: AP4-11 (structured_DNA)
DNA: AACACGACCCACGTACCTGTGCGAGACACAGACCACCAAGGTGGGC
- binding result (GII.2 HuNoV VLP): no binding
- binding result (GII.17 HuNoV VLP): no binding
